Literature values in publication PMC12571840.

Key:
CRHR1 (Homo sapiens) = CRHR1 (Homo sapiens) (UniProt P34998)
CRHR2 (Homo sapiens) = CRHR2 (Homo sapiens) (UniProt Q13324)
Sequence of UniProt Q13324 (Q13324 20-411): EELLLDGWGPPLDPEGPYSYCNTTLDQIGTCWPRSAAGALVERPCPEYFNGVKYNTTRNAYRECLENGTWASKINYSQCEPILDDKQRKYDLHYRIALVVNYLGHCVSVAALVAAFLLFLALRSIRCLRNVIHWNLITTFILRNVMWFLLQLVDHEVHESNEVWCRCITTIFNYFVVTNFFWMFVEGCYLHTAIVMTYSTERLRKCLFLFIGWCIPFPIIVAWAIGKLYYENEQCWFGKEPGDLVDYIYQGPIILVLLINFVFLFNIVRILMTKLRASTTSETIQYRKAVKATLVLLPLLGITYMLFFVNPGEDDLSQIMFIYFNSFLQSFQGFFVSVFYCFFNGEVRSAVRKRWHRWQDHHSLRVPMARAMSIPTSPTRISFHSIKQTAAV

Sequence of UniProt P34998 (P34998 24-415): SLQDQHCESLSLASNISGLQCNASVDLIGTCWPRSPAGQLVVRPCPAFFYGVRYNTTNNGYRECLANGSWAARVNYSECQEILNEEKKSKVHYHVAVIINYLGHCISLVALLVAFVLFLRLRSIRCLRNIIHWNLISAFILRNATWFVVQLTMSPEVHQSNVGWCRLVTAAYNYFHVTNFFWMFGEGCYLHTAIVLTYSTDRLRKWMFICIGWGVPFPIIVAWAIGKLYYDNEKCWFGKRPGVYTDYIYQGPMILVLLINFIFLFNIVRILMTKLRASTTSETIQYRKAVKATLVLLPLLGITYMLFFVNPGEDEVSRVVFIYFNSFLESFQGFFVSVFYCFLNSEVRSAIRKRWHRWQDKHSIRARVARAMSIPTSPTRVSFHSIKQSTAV

- Ki (CRHR1 (Homo sapiens)): 0.95 nM
- Ki (CRHR2 (Homo sapiens)): 13 nM
Substance: CRH (from UniProt P06850)
